Data as given in PMC12416549 (2024).

T1: TNFR1 (Homo sapiens, UniProt P19438)
T1 chain: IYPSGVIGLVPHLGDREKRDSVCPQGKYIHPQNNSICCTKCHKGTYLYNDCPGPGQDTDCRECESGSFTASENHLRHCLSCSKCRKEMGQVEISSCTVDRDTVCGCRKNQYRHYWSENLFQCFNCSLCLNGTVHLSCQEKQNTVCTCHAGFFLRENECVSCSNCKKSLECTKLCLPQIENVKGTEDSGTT


Target: T1, TNFR1
Assay: yeast display SC50

| Binder | apparent Kd (screen) [nM] |
| --- | --- |
| E4G (designed binder) SMEGEVEKAAKEYEKKKKEAIEKHLEKLKAKDKEAAERFLKELEEAAKEYAKDEAKTMSEEEAKRRAKKYKEKVLLSELSEEEQKEIKEAEEKLVRTILKYVEEAAK | 0.718 |
| E4N (designed binder) SMENEVEKAAKEYEKKKKEAIEKHLEKLKAKDKEAAERFLKELEEAAKEYAKDEAKTMSEEEAKRRAKKYKEKVLLSELSEEEQKEIKEAEEKLVRTILKYVEEAAK | 0.539 |
| E34W (designed binder) SMEEEVEKAAKEYEKKKKEAIEKHLEKLKAKDKWAAERFLKELEEAAKEYAKDEAKTMSEEEAKRRAKKYKEKVLLSELSEEEQKEIKEAEEKLVRTILKYVEEAAK | 0.446 |
| A30D (designed binder) SMEEEVEKAAKEYEKKKKEAIEKHLEKLKDKDKEAAERFLKELEEAAKEYAKDEAKTMSEEEAKRRAKKYKEKVLLSELSEEEQKEIKEAEEKLVRTILKYVEEAAK | 1.4 |
| E19P (designed binder) SMEEEVEKAAKEYEKKKKPAIEKHLEKLKAKDKEAAERFLKELEEAAKEYAKDEAKTMSEEEAKRRAKKYKEKVLLSELSEEEQKEIKEAEEKLVRTILKYVEEAAK | 22.2 |
| K41W (designed binder) SMEEEVEKAAKEYEKKKKEAIEKHLEKLKAKDKEAAERFLWELEEAAKEYAKDEAKTMSEEEAKRRAKKYKEKVLLSELSEEEQKEIKEAEEKLVRTILKYVEEAAK | 0.446 |
| E19K (designed binder) SMEEEVEKAAKEYEKKKKKAIEKHLEKLKAKDKEAAERFLKELEEAAKEYAKDEAKTMSEEEAKRRAKKYKEKVLLSELSEEEQKEIKEAEEKLVRTILKYVEEAAK | 0.49 |
| E49R (designed binder) SMEEEVEKAAKEYEKKKKEAIEKHLEKLKAKDKEAAERFLKELEEAAKRYAKDEAKTMSEEEAKRRAKKYKEKVLLSELSEEEQKEIKEAEEKLVRTILKYVEEAAK | 0.956 |
| E19N (designed binder) SMEEEVEKAAKEYEKKKKNAIEKHLEKLKAKDKEAAERFLKELEEAAKEYAKDEAKTMSEEEAKRRAKKYKEKVLLSELSEEEQKEIKEAEEKLVRTILKYVEEAAK | 0.446 |
| K52M (designed binder) SMEEEVEKAAKEYEKKKKEAIEKHLEKLKAKDKEAAERFLKELEEAAKEYAMDEAKTMSEEEAKRRAKKYKEKVLLSELSEEEQKEIKEAEEKLVRTILKYVEEAAK | 0.446 |
| K17M (designed binder) SMEEEVEKAAKEYEKKMKEAIEKHLEKLKAKDKEAAERFLKELEEAAKEYAKDEAKTMSEEEAKRRAKKYKEKVLLSELSEEEQKEIKEAEEKLVRTILKYVEEAAK | 0.79 |
| F39V (designed binder) SMEEEVEKAAKEYEKKKKEAIEKHLEKLKAKDKEAAERVLKELEEAAKEYAKDEAKTMSEEEAKRRAKKYKEKVLLSELSEEEQKEIKEAEEKLVRTILKYVEEAAK | 4.39 |
| E26N (designed binder) SMEEEVEKAAKEYEKKKKEAIEKHLNKLKAKDKEAAERFLKELEEAAKEYAKDEAKTMSEEEAKRRAKKYKEKVLLSELSEEEQKEIKEAEEKLVRTILKYVEEAAK | 0.593 |

The next lines start with the values.

| apparent Kd (screen) [nM] | Binder |
| --- | --- |
| 2.73 | K73I (designed binder) SMEEEVEKAAKEYEKKKKEAIEKHLEKLKAKDKEAAERFLKELEEAAKEYAKDEAKTMSEEEAKRRAKKYKEIVLLSELSEEEQKEIKEAEEKLVRTILKYVEEAAK |
| 0.49 | T57R (designed binder) SMEEEVEKAAKEYEKKKKEAIEKHLEKLKAKDKEAAERFLKELEEAAKEYAKDEAKRMSEEEAKRRAKKYKEKVLLSELSEEEQKEIKEAEEKLVRTILKYVEEAAK |
| 0.446 | E104G (designed binder) SMEEEVEKAAKEYEKKKKEAIEKHLEKLKAKDKEAAERFLKELEEAAKEYAKDEAKTMSEEEAKRRAKKYKEKVLLSELSEEEQKEIKEAEEKLVRTILKYVEGAAK |
| 0.0498 | K107D (designed binder) SMEEEVEKAAKEYEKKKKEAIEKHLEKLKAKDKEAAERFLKELEEAAKEYAKDEAKTMSEEEAKRRAKKYKEKVLLSELSEEEQKEIKEAEEKLVRTILKYVEEAAD |
| 0.79 | A106D (designed binder) SMEEEVEKAAKEYEKKKKEAIEKHLEKLKAKDKEAAERFLKELEEAAKEYAKDEAKTMSEEEAKRRAKKYKEKVLLSELSEEEQKEIKEAEEKLVRTILKYVEEADK |
| 11.4 | A55F (designed binder) SMEEEVEKAAKEYEKKKKEAIEKHLEKLKAKDKEAAERFLKELEEAAKEYAKDEFKTMSEEEAKRRAKKYKEKVLLSELSEEEQKEIKEAEEKLVRTILKYVEEAAK |
| 5.31 | V74R (designed binder) SMEEEVEKAAKEYEKKKKEAIEKHLEKLKAKDKEAAERFLKELEEAAKEYAKDEAKTMSEEEAKRRAKKYKEKRLLSELSEEEQKEIKEAEEKLVRTILKYVEEAAK |
| 2.73 | A106Y (designed binder) SMEEEVEKAAKEYEKKKKEAIEKHLEKLKAKDKEAAERFLKELEEAAKEYAKDEAKTMSEEEAKRRAKKYKEKVLLSELSEEEQKEIKEAEEKLVRTILKYVEEAYK |
| 2.48 | L79G (designed binder) SMEEEVEKAAKEYEKKKKEAIEKHLEKLKAKDKEAAERFLKELEEAAKEYAKDEAKTMSEEEAKRRAKKYKEKVLLSEGSEEEQKEIKEAEEKLVRTILKYVEEAAK |
| 1.86 | I98P (designed binder) SMEEEVEKAAKEYEKKKKEAIEKHLEKLKAKDKEAAERFLKELEEAAKEYAKDEAKTMSEEEAKRRAKKYKEKVLLSELSEEEQKEIKEAEEKLVRTPLKYVEEAAK |
| 1.16 | A105V (designed binder) SMEEEVEKAAKEYEKKKKEAIEKHLEKLKAKDKEAAERFLKELEEAAKEYAKDEAKTMSEEEAKRRAKKYKEKVLLSELSEEEQKEIKEAEEKLVRTILKYVEEVAK |
| 2.25 | K69G (designed binder) SMEEEVEKAAKEYEKKKKEAIEKHLEKLKAKDKEAAERFLKELEEAAKEYAKDEAKTMSEEEAKRRAKGYKEKVLLSELSEEEQKEIKEAEEKLVRTILKYVEEAAK |
| 0.653 | K68N (designed binder) SMEEEVEKAAKEYEKKKKEAIEKHLEKLKAKDKEAAERFLKELEEAAKEYAKDEAKTMSEEEAKRRANKYKEKVLLSELSEEEQKEIKEAEEKLVRTILKYVEEAAK |
